Laboratory results reported in patent US20050277762A1 (published 2005).
Values belong to the binder of their own block, whether it stands above or below them.

Experiments:
[1] = molecular target: T1, ubiquitin aldehyde (Ubal) (UniProt P0CG47 1-76, C-terminal residue as aldehyde); assay: competition: wild type yeast lysate pre-incubated with increasing Ubal, then [^125I]-UbVS labeling
Description: Reactions were quenched with sample buffer, resolved by 10% SDS-PAGE and analyzed by autoradiography. Identity of bands was assigned based on the absence of a band corresponding to the molecular weight of a DUB deleted in that strain.

[2] = molecular target: T1, ubiquitin aldehyde (Ubal); assay: competition: lysate pre-treated with Ubal, then [^125I]-UbVS labeling

- binding result [1]: binds
B1: Ubp15 (enzyme, S. cerevisiae, UniProt P50101 1-1230, looked up)
chain: MSSEDELGSIGTVFPGSPIDKSIGSILPQFDEEVETLLEDSFTWNIPDWNELTNPKYNSPRFRIGDFEWDILLFPQGNHNKGVAVYLEPHPEEKLDETTGEMVPVDPDWYCCAQFAIGISRPGNGDTINLINKSHHRFNALDTDWGFANLIDLNNLKHPSKGRPLSFLNEGTLNITAYVRILKDPTGVLWHNFLNYDSKKVTGYVGFRNQGATCYLNSLLQSYFFTKYFRKLVYEIPTEHESPNNSVPLALQRAFYQLQVSDIPLDTLELTRSFGWDTAESFTQHDVQELNRILMDRLENNMKGTPVEGKLNEIFVGKMKSYIKCINVDYESARVEDFWDLQLNVKNFKNLQESFDNYIEMELMNGENQYAAQDYGLQDAQKGVIFESFPPVLHLQLKRFEYDFNYDQMVKVNDKYEFPETIDLSPFVDKDVLKKTLDSENKDKNPYVYNLHGVLVHSGDISTGHYYTLIKPGVEDQWYRFDDERVWRVTKKQVFQENFGCDRLPDEKVRTMTRGEYQNYIIQRHTSAYMLVYIRQEQEEDLLRPVLESDVPKHVITRVREEIKERETKEKEIREAHLYVTLRLHSIKEFIHYEGFDYFAHDGFRLFAEELNDSGLQQINLKVLRTTKLSDIFASIKETMNIPQERDVKYWKMDYRRNSTLRLTQPINFESVNITLQEALKKEKKRTMQTQYGEEGVASTEEDDKALLETVSFLDLFIEEPYLELQFLNKLKEASLISKAQLDDELISTIRTNLPELTKGGIEPVFATDNKSNLLFVKSYDPHTQKLLGFGHFAVNQLQQLSDISAIIEDSISSNEKLTFYEEVQPGTINEIYMKETIYDADIDTGDIVSFEVPGAVLPDTFPVYATIKDFYSYLRYRVKLKFSKFDGSSEEYGVSNEIPESFEFWISAYAPYDDLARMVSKYAHVKPEYLKIIALYSNGRFVLKSTSLLNDYLLKDFNCDQIPPFAFEVLSVPLKELERLRPIKLYWLKNSYIHYQCFEFEVANDYTESQFLEKVQHKIGFTDEEKENILLWTNTNFQFQGLLSDQNTFKDVSKHSLLFGRILPEESKLFKELNRLENVQTSSLEDFMDDENATDRPMDDEQDLGMAIEHSEDMKGRIVVVQQYFKDLENRHGISFLFNLIPDETFPKTKDRLHAKFGLGQKEFSKIKLSIGYSTEEGTVFRSLQGFSDEELDKVILYDIMSNLDYIYMDHPDRLRSHSSYDRPMIIKN
notes: also called Ubp15p

- binding result [1]: binds
B2: Yuh1 (enzyme, S. cerevisiae, UniProt P35127 1-236, looked up)
chain: MSGENRAVVPIESNPEVFTNFAHKLGLKNEWAYFDIYSLTEPELLAFLPRPVKAIVLLFPINEDRKSSTSQQITSSYDVIWFKQSVKNACGLYAILHSLSNNQSLLEPGSDLDNFLKSQSDTSSSKNRFDDVTTDQFVLNVIKENVQTFSTGQSEAPEATADTNLHYITYVEENGGIFELDGRNLSGPLYLGKSDPTATDLIEQELVRVRVASYMENANEEDVLNFAMLGLGPNWE
notes: also called Yuh1p

- binding result [2]: binds
B3: USP14 (TGT) (enzyme, mouse (EL-4 cell lysate), UniProt Q9JMA1 1-493, looked up)
chain: MPLYSVTVKWGKEKFEGVELNTDEPPMVFKAQLFALTGVQPARQKVMVKGGTLKDDDWGNIKMKNGMTVLMMGSADALPEEPSAKTVFVEDMTEEQLATAMELPCGLTNLGNTCYMNATVQCIRSVPELKDALKRYAGALRASGEMASAQYITAALRDLFDSMDKTSSSIPPIILLQFLHMAFPQFAEKGEQGQYLQQDANECWIQMMRVLQQKLEAIEDDSGRETDSSSAPAVTPSKKKSLIDQYFGVEFETTMKCTESEEEEVTKGKENQLQLSCFINQEVKYLFTGLKLRLQEEITKQSPTLQRNALYIKSSKISRLPAYLTIQMVRFFYKEKESVNAKVLKDVKFPLMLDVYELCTPELQEKMVSFRSKFKDLEDKKVNQQPNANDKNSPPKEIKYEPFSFADDIGSNNCGYYDLQAVLTHQGRSSSSGHYVSWVRRKQDEWIKFDDDKVSIVTPEDILRLSGGGDWHIAYVLLYGPRRVEIMEEESEQ
notes: also called p58

- binding result [1]: binds
B4: Ubp2 (enzyme, S. cerevisiae, UniProt Q01476 1-1272, looked up)
chain: MPNEDNELQKAIENHHNQLLNQDKENADRNGSVIEDLPLYGTSINQQSTPGDVDDGKHLLYPDIATNLPLKTSDRLLDDILCDTIFLNSTDPKVMQKGLQSRGILKESMLSYSTFRSSIRPNCLGSLTDQVVFQTKSEYDSISCPKYNKIHVFQAVIFNPSLAEQQISTFDDIVKIPIYHLKVSVKVRQELERLKKHVGVTQFHSLDHLHEYDRVDLSTFDSSDPNLLDYGIYVSDDTNKLILIEIFKPEFNSPEEHESFTADAIKKRYNAMCVKNESLDKSETPSQVDCFYTLFKIFKGPLTRKSKAEPTKTIDSGNLALNTHLNPEWLTSKYGFQASSEIDEETNEIFTEYVPPDMVDYVNDLETRKIRESFVRKCLQLIFWGQLSTSLLAPNSPLKNTKSVKGMSSLQTSFSTLPWFHLLGESRARILLNSNEQTHSPLDAEPHFINLSVSHYYTDRDIIRNYESLSSLDPENIGLYFDALTYIANRKGAYQLIAYCGKQDIIGQEALENALLMFKINPKECNISELNEATLLSIYKYETSNKSQVTSNHLTNLKNALRLLAKYTKSDKLKFYVDHEPYRALSQAYDTLSIDESVDEDIIKTAYSVKINDSPGLKLDCDRALYTIAISKRSLDLFNFLTEECPQFSNYYGPEKLDYQEALKLLQVNENASDETILKIFKQKWFDENVYEPDQFLILRAALTKISIERNSTLITNFLLTGTIDPNSLPPENWPTGINNIGNTCYLNSLLQYYFSIAPLRRYVLEYQKTVENFNDHLSNSGHIRRIGGREISRGEVERSIQFIYQLRNLFYAMVHTRERCVTPSKELAYLAFAPSNVEVEFEVEGNKVVDQTGVLSDSKKETTDDAFTTKIKDTSLIDLEMEDGLNGDVGTDANRKKNESNDAEVSENEDTTGLTSPTRVAKISSDQLENALEMGRQQDVTECIGNVLFQIESGSEPIRYDEDNEQYDLVKQLFYGTTKQSIVPLSATNKVRTKVERFLSLLINIGDHPKDIYDAFDSYFKDEYLTMEEYGDVIRTVAVTTFPTILQVQIQRVYYDRERLMPFKSIEPLPFKEVIYMDRYADTENPLLLAKKKETEEMKQKLKVMKNRQRELLSRDDSGLTRKDAFLESIKLLESDTIKKTPLKIEAANDVIKTLRNNVQNIDNELMKLYNDINSLEEKISHQFDDFKEYGYSLFSVFIHRGEASYGHYWIYIKDRNRNGIWRKYNDETISEVQEEEVFNFNEGNTATPYFLVYVKQGQEGDIEPLKRILK
notes: also called Ubp2p

- binding result [1]: binds
B5: Ubp6 (enzyme, S. cerevisiae, UniProt P43593 1-499, looked up)
chain: MSGETFEFNIRHSGKVYPITLSTDATSADLKSKAEELTQVPSARQKYMVKGGLSGEESIKIYPLIKPGSTVMLLGTPDANLISKPAKKNNFIEDLAPEQQVQQFAQLPVGFKNMGNTCYLNATLQALYRVNDLRDMILNYNPSQGVSNSGAQDEEIHKQIVIEMKRCFENLQNKSFKSVLPIVLLNTLRKCYPQFAERDSQGGFYKQQDAEELFTQLFHSMSIVFGDKFSEDFRIQFKTTIKDTANDNDITVKENESDSKLQCHISGTTNFMRNGLLEGLNEKIEKRSDLTGANSIYSVEKKISRLPKFLTVQYVRFFWKRSTNKKSKILRKVVFPFQLDVADMLTPEYAAEKVKVRDELRKVEKEKNEKEREIKRRKFDPSSSENVMTPREQYETQVALNESEKDQWLEEYKKHFPPNLEKGENPSCVYNLIGVITHQGANSESGHYQAFIRDELDENKWYKFNDDKVSVVEKEKIESLAGGGESDSALILMYKGFGL
notes: also called Ubp6p

- binding result [1]: binds
B6: Ubp1 (enzyme, S. cerevisiae, UniProt P25037 1-809, looked up)
chain: MDLFIESKINSLLQFLFGSRQDFLRNFKTWSNNNNNLSIYLLIFGIVVFFYKKPDHLNYIVESVSEMTTNFRNNNSLSRWLPRSKFTHLDEEILKRGGFIAGLVNDGNTCFMNSVLQSLASSRELMEFLDNNVIRTYEEIEQNEHNEEGNGQESAQDEATHKKNTRKGGKVYGKHKKKLNRKSSSKEDEEKSQEPDITFSVALRDLLSALNAKYYRDKPYFKTNSLLKAMSKSPRKNILLGYDQEDAQEFFQNILAELESNVKSLNTEKLDTTPVAKSELPDDALVGQLNLGEVGTVYIPTEQIDPNSILHDKSIQNFTPFKLMTPLDGITAERIGCLQCGENGGIRYSVFSGLSLNLPNENIGSTLKLSQLLSDWSKPEIIEGVECNRCALTAAHSHLFGQLKEFEKKPEGSIPEKLINAVKDRVHQIEEVLAKPVIDDEDYKKLHTANMVRKCSKSKQILISRPPPLLSIHINRSVFDPRTYMIRKNNSKVLFKSRLNLAPWCCDINEINLDARLPMSKKEKAAQQDSSEDENIGGEYYTKLHERFEQEFEDSEEEKEYDDAEGNYASHYNHTKDISNYDPLNGEVDGVTSDDEDEYIEETDALGNTIKKRIIEHSDVENENVKDNEELQEIDNVSLDEPKINVEDQLETSSDEEDVIPAPPINYARSFSTVPATPLTYSLRSVIVHYGTHNYGHYIAFRKYRGCWWRISDETVYVVDEAEVLSTPGVFMLFYEYDFDEETGKMKDDLEAIQSNNEEDDEKEQEQKGVQEPKESQEQGEGEEQEEGQEQMKFERTEDHRDISGKDVN
notes: also called Ubp1p
